Our source for the Refolding Ratio of Sc-RNase (%) and reactivation of Sc-lysozyme (lysozyme activity on ethylene glycol chitin, absorbance values is US5700659.

Experiment [1] addresses scrambled ribonuclease A from bovine pancreas (bovine) (UniProt P61823).
Experiment [2] deals with scrambled egg lysozyme (Gallus gallus (Chicken)) (UniProt P00698).

Sequence of UniProt P61823 (P61823 27-150 limits assumed): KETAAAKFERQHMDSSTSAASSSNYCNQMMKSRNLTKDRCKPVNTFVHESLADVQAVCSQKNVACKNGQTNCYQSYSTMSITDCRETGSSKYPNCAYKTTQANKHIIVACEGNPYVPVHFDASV

B1: polypeptide possessing protein disulfide isomerase (PDI) activity from Humicola insolens KASI (FERM BP-4239), purified from fungal cells (Example 2) (enzyme)
chain: SDVVQLKKDTFDDFIKTNDLVLAEFFAPWCGHCKALAPEYEEAATTLKEKNIKLAKVDCTEETDLCQQHGVEGYPTLKVFRGLDNVSPYKGQRKAAAITSYMIKQSLPAVSEVTKDNLEEFKKADKAVLVAYVDASDKASSEVFTQVAEKLRDNYPFGSSSDAALAEAEGVKAPAIVLYKDFDEGKAVFSEKFEVEAIEKFAKTGATPLIGEIGPETYSDYMSAGIPLAYIFAETAEERKELSDKLKPIAEAQRGVINFGTIDAKAFGAHAGNLNLKTDKFPAFAIQEVAKNQKFPFDQEKEITFEAIKAFVDDFVAGKIEPSIKSEPIPEKQEGPVTVVVAKNYNEIVLDDTKDVLIEFYAPWCGHCKALAPKYEELGALYAKSEFKDRVVIAKVDATANDVPDEIQGFPTIKLYPAGAKGQPVTYSGSRTVEDLIKFIAENGKYKAAISEDAEETSSATETTTETATKSEEAAKETATEHDEL
As to B1, the Refolding Ratio of Sc-RNase (%) in experiment [1] worked out at 80%. In experiment [2], this molecule registered a reactivation of Sc-lysozyme (lysozyme activity on ethylene glycol chitin, absorbance at 420 nm) of 12%.

B2: recombinant polypeptide possessing PDI activity from E. coli JM105/pTrc99APDI (Example 8) (enzyme)
chain: SDVVQLKKDTFDDFIKTNDLVLAEFFAPWCGHCKALAPEYEEAATTLKEKNIKLAKVDCTEETDLCQQHGVEGYPTLKVFRGLDNVSPYKGQRKAAAITSYMIKQSLPAVSEVTKDNLEEFKKADKAVLVAYVDASDKASSEVFTQVAEKLRDNYPFGSSSDAALAEAEGVKAPAIVLYKDFDEGKAVFSEKFEVEAIEKFAKTGATPLIGEIGPETYSDYMSAGIPLAYIFAETAEERKELSDKLKPIAEAQRGVINFGTIDAKAFGAHAGNLNLKTDKFPAFAIQEVAKNQKFPFDQEKEITFEAIKAFVDDFVAGKIEPSIKSEPIPEKQEGPVTVVVAKNYNEIVLDDTKDVLIEFYAPWCGHCKALAPKYEELGALYAKSEFKDRVVIAKVDATANDVPDEIQGFPTIKLYPAGAKGQPVTYSGSRTVEDLIKFIAENGKYKAAISEDAEETSSATETTTETATKSEEAAKETATEHDEL
With B2, the Refolding Ratio of Sc-RNase (%) in experiment [1] was 82%.
